Source: publication PMC11840923, “Kinetic and Thermodynamic Characterization of Human 4-Oxo-L-proline Reductase Catalysis” (Biochemistry, 2025)

Substrate: O=C1CN[C@H](C(=O)O)C1
Assay: purified protein
Assay type: biochemical, Homo sapiens
Settings: NADH binds the HsBDH2:NADH complex; receives the pro-S hydrogen from NADH

B1: 4-oxo-L-proline reductase (HsBDH2) (Homo sapiens) (protein)
chain: MGRLDGKVIILTAAAQGIGQAAALAFAREGAKVIATDINESKLQELEKYPGIQTRVLDVTKKKQIDQFANEVERLDVLFNVAGFVHHGTVLDCEEKDWDFSMNLNVRSMYLMIKAFLPKMLAQKSGNIINMSSVASSVKGVVNRCVYSTTKAAVIGLTKSVAADFIQQGIRCNCVCPGTVDTPSLQERIQARGNPEEARNDFLKRQKTGRFATAEEIAMLCVYLASDESAYVTGNPVIIDGGWSL
  Km: 176 µM
